From US20200262867A1 (WNTRX PHARMACEUTICALS, published 2020)
Bridges are numbered along the chain shown (N, C = ends). [ ]: non-standard residue; d: D form. Phe(4-Cl) = N[C@@H](Cc1ccc(Cl)cc1)C(=O)O; 2Nal = N[C@@H](Cc1ccc2ccccc2c1)C(=O)O; NMeCha = CN[C@@H](CC1CCCCC1)C(=O)O; NMeR = CN[C@@H](CCCNC(=N)N)C(=O)O; NMeE = CN[C@@H](CCC(=O)O)C(=O)O; NMeQ = CN[C@@H](CCC(N)=O)C(=O)O; Cha = N[C@@H](CC1CCCCC1)C(=O)O; NMeD = CN[C@@H](CC(=O)O)C(=O)O; Cba = N[C@@H](CC1CCC1)C(=O)O; Tle = CC(C)(C)[C@H](N)C(=O)O; S5 = C=CCCC[C@](C)(N)C(=O)O

T1: β-catenin (UniProt P35222 1-781, limits assumed)
T1 construct: also called beta-catenin
T1 sequence (looked up): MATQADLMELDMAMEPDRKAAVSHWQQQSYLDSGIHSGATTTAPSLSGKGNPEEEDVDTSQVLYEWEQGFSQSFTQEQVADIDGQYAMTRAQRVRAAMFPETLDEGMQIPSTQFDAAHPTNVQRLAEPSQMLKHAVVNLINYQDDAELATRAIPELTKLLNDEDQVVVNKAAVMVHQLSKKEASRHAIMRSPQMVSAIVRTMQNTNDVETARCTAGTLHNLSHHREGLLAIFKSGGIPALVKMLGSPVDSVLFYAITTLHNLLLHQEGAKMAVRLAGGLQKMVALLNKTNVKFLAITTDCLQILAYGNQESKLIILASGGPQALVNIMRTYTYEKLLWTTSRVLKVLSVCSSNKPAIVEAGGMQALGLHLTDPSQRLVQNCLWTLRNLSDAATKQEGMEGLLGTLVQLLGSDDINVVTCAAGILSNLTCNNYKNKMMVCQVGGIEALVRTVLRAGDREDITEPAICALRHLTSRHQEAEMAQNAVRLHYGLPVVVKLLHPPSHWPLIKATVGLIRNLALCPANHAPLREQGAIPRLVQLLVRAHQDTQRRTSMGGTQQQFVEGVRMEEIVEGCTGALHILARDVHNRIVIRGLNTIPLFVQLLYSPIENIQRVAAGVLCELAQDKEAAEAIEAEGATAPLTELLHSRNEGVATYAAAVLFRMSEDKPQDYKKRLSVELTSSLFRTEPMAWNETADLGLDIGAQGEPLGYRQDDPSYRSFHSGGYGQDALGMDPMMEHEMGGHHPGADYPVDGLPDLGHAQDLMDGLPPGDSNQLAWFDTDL


target: T1, β-catenin; test: ALPHA Screen (BCL9/β-catenin);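 also: bead proximity readout with the polypeptide linked to donor beads and β-catenin fixed on acceptor beads, their binding bringing the beads close enough to emit signal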
Description: In this assay, a polypeptide is conjugated to a donor bead and its target protein (i.e., β-catenin) is attached to an acceptor bead. When the two beads are in proximity due to the binding of the polypeptide to the target protein, a signal is generated and the binding affinity of the polypeptide can be quantitatively calculated. The assay may be conducted in the presence or absence of an unconjugated control polypeptide.

Row | Binder | IC50 [nM]
1 | Ac-H[NMeR]QRSLQTLR[S5]IQR[S5][Cba][2Nal]-NH2 (staple 11-15) [SEQ ID NO: 166] | 403
2 | Ac-HRERSLQTLR[S5]IQA[S5][Cba][2Nal]-NH2 (staple 11-15; not fully specified; printed as HRERSLQTLRXIQAX(CBA)(2-Nal)) [SEQ ID NO: 29] | 1350
3 | Ac-HRERSLQTLR[S5]IQE[S5][Cba][2Nal]-OH (staple 11-15; SMILES CC[C@H](C)[C@@H]1NC(=O)[C@@](C)(NC(=O)[C@H](CCCNC(=N)N)NC(=O)[C@H](CC(C)C)NC(=O)[C@@H](NC(=O)[C@H](CCC(N)=O)NC(=O)[C@H](CC(C)C)NC(=O)[C@H](CO)NC(=O)[C@H](CCCNC(=N)N)NC(=O)[C@H](CCC(=O)O)NC(=O)[C@H](CCCNC(=N)N)NC(=O)[C@H](Cc2c[nH]cn2)NC(C)=O)[C@@H](C)O)CCCC=CCCC[C@@](C)(C(=O)N[C@@H](CC2CCC2)C(=O)N[C@@H](Cc2ccc3ccccc3c2)C(=O)O)NC(=O)[C@H](CCC(=O)O)NC(=O)[C@H](CCC(N)=O)NC1=O) [SEQ ID NO: 146] | 493
4 | Ac-HR[NMeD]RSLQTLR[S5]IQR[S5][Cba][2Nal]-NH2 (staple 11-15; SMILES CC[C@H](C)[C@@H]1NC(=O)[C@@](C)(NC(=O)[C@H](CCCNC(=N)N)NC(=O)[C@H](CC(C)C)NC(=O)[C@@H](NC(=O)[C@H](CCC(N)=O)NC(=O)[C@H](CC(C)C)NC(=O)[C@H](CO)NC(=O)[C@H](CCCNC(=N)N)NC(=O)[C@H](CC(=O)O)N(C)C(=O)[C@H](CCCNC(=N)N)NC(=O)[C@H](Cc2c[nH]cn2)NC(C)=O)[C@@H](C)O)CCCC=CCCC[C@@](C)(C(=O)N[C@@H](CC2CCC2)C(=O)N[C@@H](Cc2ccc3ccccc3c2)C(N)=O)NC(=O)[C@H](CCCNC(=N)N)NC(=O)[C@H](CCC(N)=O)NC1=O) [SEQ ID NO: 157] | 525
5 | Ac-HQERSLQTLR[S5]IQR[S5]L[2Nal]-NH2 (staple 11-15; not fully specified; printed as HQERSLQTLRXIQRXL(2-Nal)) [SEQ ID NO: 11] | 2110
6 | Ac-HRERSLQTLR[S5]IQA[S5]L[2Nal]-NH2 (staple 11-15; not fully specified; printed as HRERSLQTLRXIQAXL(2-Nal)) [SEQ ID NO: 28] | 2000
7 | Ac-HRERSLQTLR[S5]IQR[S5]L[2Nal]-NH2 (staple 11-15; not fully specified; printed as HRERSLQTLRXIQRXL(2-Nal)) [SEQ ID NO: 6] | 670
8 | Ac-HRERSLQTL[NMeR][S5]IQR[S5][Cba][2Nal]-OH (staple 11-15; not fully specified) [SEQ ID NO: 152] | 794

More lines, in order of falling IC50, values ahead:

Row | IC50 [nM] | Binder
9 | 457 | Ac-HRERSLQTLR[S5]IQR[S5][Cba][2Nal]-NH2 (staple 11-15; SMILES CC[C@H](C)[C@@H]1NC(=O)[C@@](C)(NC(=O)[C@H](CCCNC(=N)N)NC(=O)[C@H](CC(C)C)NC(=O)[C@@H](NC(=O)[C@H](CCC(N)=O)NC(=O)[C@H](CC(C)C)NC(=O)[C@H](CO)NC(=O)[C@H](CCCNC(=N)N)NC(=O)[C@H](CCC(=O)O)NC(=O)[C@H](CCCNC(=N)N)NC(=O)[C@H](Cc2c[nH]cn2)NC(C)=O)[C@@H](C)O)CCCC=CCCC[C@@](C)(C(=O)N[C@@H](CC2CCC2)C(=O)N[C@@H](Cc2ccc3ccccc3c2)C(N)=O)NC(=O)[C@H](CCCNC(=N)N)NC(=O)[C@H](CCC(N)=O)NC1=O) [SEQ ID NO: 14]
10 | 398 | Ac-HR[NMeQ]RSLQTLR[S5]IQR[S5][Tle][2Nal]-NH2 (staple 11-15; also: N-methylglutamine 3: D or L (filing names both)) [SEQ ID NO: 194]
11 | 329 | Ac-HRQRSLQTLR[S5]IQR[S5][Tle][2Nal]-NH2 (staple 11-15; SMILES CC[C@H](C)[C@@H]1NC(=O)[C@@](C)(NC(=O)[C@H](CCCNC(=N)N)NC(=O)[C@H](CC(C)C)NC(=O)[C@@H](NC(=O)[C@H](CCC(N)=O)NC(=O)[C@H](CC(C)C)NC(=O)[C@H](CO)NC(=O)[C@H](CCCNC(=N)N)NC(=O)[C@H](CCC(N)=O)NC(=O)[C@H](CCCNC(=N)N)NC(=O)[C@H](Cc2c[nH]cn2)NC(C)=O)[C@@H](C)O)CCCC=CCCC[C@@](C)(C(=O)N[C@H](C(=O)N[C@@H](Cc2ccc3ccccc3c2)C(N)=O)C(C)(C)C)NC(=O)[C@H](CCCNC(=N)N)NC(=O)[C@H](CCC(N)=O)NC1=O) [SEQ ID NO: 192]
12 | 291 | Ac-HRQRTLQTLR[S5]IQR[S5][Cba][2Nal]-NH2 (staple 11-15) [SEQ ID NO: 159]
13 | 261 | Ac-HR[NMeE]RSLQTLR[S5]IQR[S5][Cba][2Nal]-NH2 (staple 11-15; SMILES CC[C@H](C)[C@@H]1NC(=O)[C@@](C)(NC(=O)[C@H](CCCNC(=N)N)NC(=O)[C@H](CC(C)C)NC(=O)[C@@H](NC(=O)[C@H](CCC(N)=O)NC(=O)[C@H](CC(C)C)NC(=O)[C@H](CO)NC(=O)[C@H](CCCNC(=N)N)NC(=O)[C@H](CCC(=O)O)N(C)C(=O)[C@H](CCCNC(=N)N)NC(=O)[C@H](Cc2c[nH]cn2)NC(C)=O)[C@@H](C)O)CCCC=CCCC[C@@](C)(C(=O)N[C@@H](CC2CCC2)C(=O)N[C@@H](Cc2ccc3ccccc3c2)C(N)=O)NC(=O)[C@H](CCCNC(=N)N)NC(=O)[C@H](CCC(N)=O)NC1=O) [SEQ ID NO: 151]
14 | 253 | Ac-HRQRS[Cba]QTLR[S5]IQR[S5][Cba][2Nal]-NH2 (staple 11-15; SMILES CC[C@H](C)[C@@H]1NC(=O)[C@@](C)(NC(=O)[C@H](CCCNC(=N)N)NC(=O)[C@H](CC(C)C)NC(=O)[C@@H](NC(=O)[C@H](CCC(N)=O)NC(=O)[C@H](CC2CCC2)NC(=O)[C@H](CO)NC(=O)[C@H](CCCNC(=N)N)NC(=O)[C@H](CCC(N)=O)NC(=O)[C@H](CCCNC(=N)N)NC(=O)[C@H](Cc2c[nH]cn2)NC(C)=O)[C@@H](C)O)CCCC=CCCC[C@@](C)(C(=O)N[C@@H](CC2CCC2)C(=O)N[C@@H](Cc2ccc3ccccc3c2)C(N)=O)NC(=O)[C@H](CCCNC(=N)N)NC(=O)[C@H](CCC(N)=O)NC1=O) [SEQ ID NO: 156]
15 | 232 | Ac-HRQRS[NMeCha][NMeQ]TLR[S5]IQR[S5][Cha][2Nal]-NH2 (staple 11-15; also: N-MeGln at 7: D or L (both stated)) [SEQ ID NO: 186]
16 | 223 | Ac-HRQRS[Cha][NMeQ]TLR[S5]IQR[S5][Cha][2Nal]-NH2 (staple 11-15; also: N-MeGln at 7: D or L (both stated)) [SEQ ID NO: 185]
17 | 154 | Ac-HRERSLQTLR[S5]IQQ[S5][Cba][2Nal]-NH2 (staple 11-15; SMILES CC[C@H](C)[C@@H]1NC(=O)[C@@](C)(NC(=O)[C@H](CCCNC(=N)N)NC(=O)[C@H](CC(C)C)NC(=O)[C@@H](NC(=O)[C@H](CCC(N)=O)NC(=O)[C@H](CC(C)C)NC(=O)[C@H](CO)NC(=O)[C@H](CCCNC(=N)N)NC(=O)[C@H](CCC(=O)O)NC(=O)[C@H](CCCNC(=N)N)NC(=O)[C@H](Cc2c[nH]cn2)NC(C)=O)[C@@H](C)O)CCCC=CCCC[C@@](C)(C(=O)N[C@@H](CC2CCC2)C(=O)N[C@@H](Cc2ccc3ccccc3c2)C(N)=O)NC(=O)[C@H](CCC(N)=O)NC(=O)[C@H](CCC(N)=O)NC1=O) [SEQ ID NO: 145]
18 | 59 | Ac-HRQRSLQTLR[S5]IQR[S5][Phe(4-Cl)][2Nal]-NH2 (staple 11-15; SMILES CC[C@H](C)[C@@H]1NC(=O)[C@@](C)(NC(=O)[C@H](CCCNC(=N)N)NC(=O)[C@H](CC(C)C)NC(=O)[C@@H](NC(=O)[C@H](CCC(N)=O)NC(=O)[C@H](CC(C)C)NC(=O)[C@H](CO)NC(=O)[C@H](CCCNC(=N)N)NC(=O)[C@H](CCC(N)=O)NC(=O)[C@H](CCCNC(=N)N)NC(=O)[C@H](Cc2c[nH]cn2)NC(C)=O)[C@@H](C)O)CCCC=CCCC[C@@](C)(C(=O)N[C@@H](Cc2ccc(Cl)cc2)C(=O)N[C@@H](Cc2ccc3ccccc3c2)C(N)=O)NC(=O)[C@H](CCCNC(=N)N)NC(=O)[C@H](CCC(N)=O)NC1=O) [SEQ ID NO: 179]
